# Experimental data reported in the nanobody polyreactivity screen of Harvey et al. (2022).
# Test: yeast display, Sf9 membrane polyspecificity reagent, FACS + sequencing; frameworks hold sequencing errors
# How it was run: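 Galactose-induced (36–48 hours) yeast carrying a synthetic nanobody display library were exposed to 10% biotinylated, detergent-solubilized Sf9 membrane reagent at 4 °C for 1 hour. FACS followed streptavidin microbead enrichment, using low and high (top ~1%) gates for expression (anti-HA) and reagent binding (streptavidin). Colony PCR, MiSeq 2 × 250 sequencing and CDR-length filtering followed. Labels for polyreactivity reflect the gate of origin.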
row,Sequence,polyreactivity (PSR sort gate)
1,QVQLVESGGGLVQAGGSLRLSCAASGSTFRRYAMGWNRKAPGKERELVAAISGRGGSTSYADSVTGRFTISRDNAKNTVFLQMNSLKPEETAVYYCAADDKYFYPGNGYWGQGTQVTVSS,high polyreactivity
2,QVQLVESGGGLVQAGGSLRLSCAASGSTFRRYAMGWYRPAPGKERELVAVITSRGGSTYYADSVKGRFTISRDNAKNTVYLQMNSLKPEDTAVYYCAAGYTSGYWANHYTPRFYYWGQGTQVTVSS,high polyreactivity
3,QVQLVESGGGLVQAGGSLRLSCAASGSTFRRYAMGWYRQAPGKERELVASISWSGGSTSYADSVKGRFTISRDTAKNTVYLQMNSLKPEDTAVYYCAAVRYYWGEYYARYAYEYWGQGTQVTVSS,high polyreactivity
4,QVQLVESGGGLVQAGGSLRLSCAASGSTFRRYAMGWYRQAPGNERELVAAITGSGGRTYYADSVKGRFTISRDNAKNTVYLQMNSLKPEDTAVYYCAARGTHSRRRYYYWGQGTQVTVSS,high polyreactivity
5,QVQLVESGGGLVQAGGSLRLSCAASGSTFRRYTMGWYRQAPGKERELVAAISSGGSTYYADSVKGRFTISLDNAKNTVYLQMNSLKPEDTAVYYCAAKNYPLTRYWRYDYSEYYYWGQGTQVTVSS,high polyreactivity
6,QVQLVESGGGLVQAGGSLRLSCAASGSTFRSNAMGWYRQAPGKEGELVAAISSRVGTTNYADSVKGRFTISRDNAKNTVYLQMNSLKPEDTAVYYCAAQGWRYYRTVVPMDYWGQGTQVTVSS,low polyreactivity
7,QVQLVESGGGLVQAGGSLRLSCAASGSTFRSNAMGWYRQAPGKERELVASITSRGGSTYYADSVKGRFTISRDNAKNTVYLQMNSLKPEDTAVYYCATARSYLTYSYHYDYWGQGTQVTVSS,low polyreactivity
8,QVQLVESGGGLVQAGGSLRLSCAASGSTFRSNAMGWYRQAPGKESELVAAITRRGSTYYADSVKGRFTISRDNAKNTVYLQMNSVKPEDTAVYYCAARVPGYASGASGYSSYRYEYWGQGTQVTVSS,high polyreactivity
9,QVQLVESGGGLVQAGGSLRLSCAASGSTFRSYAMGGYIQAPGKERELVAAISGRGGSTYYADSVKGRFTISRDNAKNPVYLQMNSLKPEDTAVYYCNAVPGVSYWGQGLDYWGQGTQVTVSS,low polyreactivity
10,QVQLVESGGGLVQAGGSLRLSCAASGSTFRSYAMGWYRQAPGKERELVAAISRGGSTYYADSVKGRFTISRDNAKNTVYLQMNSLKPEDTAVYYCAARPPRGSWQYDYWGQGTQVTVSS,high polyreactivity
11,QVQLVESGGGLVQAGGSLRLSCAASGSTFRSYAMGWYRQAPGKERELVAAISSTGGSTYYADSVKCRFTISRDTAKNTVYFQMNSLKPVDTAVYYCAADFLYYEYDYWGQGTQVTVSS,low polyreactivity
12,QVQLVESGGGLVQAGGSLRLSCAASGSTFRSYAMGWYRQAPWKERELVAAISSSGGSTYYADSVKGRFTISRDNANNTVYLQMNSLKPEDTAVYICAADFLYYEYDYWGQGTQVTVSS,low polyreactivity
13,QVQLVESGGGLVQAGGSLRLSCAASGSTFRSYTMGWYRQAPGKERELVAAISGRGGSTYYADSVKGRFTISRDNAKNTVYLQMNSLKPEDTAVYYCAAPYWKRVAWGFDYWGQGTQVTVSS,high polyreactivity
14,QVQLVESGGGLVQAGGSLRLSCAASGSTFRSYTRGWYRQAPGKERELVAAIRKSGVRTYYADSVKGRFTISRDNAKNTVYLQMNSLKPEDTAVYYCNRPKWYDGDYWGQGTEVTVSS,high polyreactivity
15,QVQLVESGGGLVQAGGSLRLSCAASGSTFRSYVMGWYRQAPGKERELVARITFNGGGTSYADSVKGRFTISRDTAKNTVYLQMNSLKPEDTAVYYCAARGYGWPKLFNYWGQGTQVTVSS,high polyreactivity
16,QVQLVESGGGLVQAGGSLRLSCAASGSTFRTNVMGWYRQAPGKEREVVAAITKRGSITYYADSVKGRFTISRDNAKNTVYFQMNTLKPEDTAVYYCAARKVAVRGYAYWGQGTQVTVSS,high polyreactivity
17,QVQLVESGGGLVQAGGSLRLSCAASGSTFRVNTMGWYRQAPGKERELVAAISWSTGTSTYADSVKGRFTISRDNAKNTVYLQMNSLKPEDTAVYYCAAGQPAWGVEYDSWGQGTQVTVSS,low polyreactivity
18,QVQLVESGGGLVQAGGSLRLSCAASGSTFRVYAMGWYRQAPGKERELVAGISWRGGSTSYADSVKGRFTISRDNAKNTVYLQMNSLKPEDTAVYYCAVQRSYVGPRQYNYWGQGTQVTVSS,high polyreactivity
19,QVQLVESGGGLVQAGGSLRLSCAASGSTFRVYAMGWYRQAPGTERELVATINVSGGSTYYADSVKGRFTISRDNAKNTVYLQMNSLKPEDTAVYYCAKEDGAYGYPFDYWGQGTQVTVSS,low polyreactivity
20,QVQLVESGGGLVQAGGSLRLSCAASGSTFRVYAMGWYRQATGKERELVAAIRWRGVTTYADSVKGRFTISRDNAKNTVYLQMNSLKPEDTAVYYCARDVNYPGSEGDYWGQGTQVTVSS,low polyreactivity
21,QVQLVESGGGLVQAGGSLRLSCAASGSTFRWYAMGWYRQAPGKERELVAAISGSGGSTYYADSVKGRFTISRDNAKKTVYLQMNSLKPEDTAVYYCNKRYFTYLGEHTVGYWGQGTQVTVSS,high polyreactivity
22,QVQLVESGGGLVQAGGSLRLSCAASGSTFRYNAMGWYRQAPGKERELVAAINRGGGTDYADSVKGRFTISRDNAKNTVYLQMNSLKPEDTAVYYCAAAYLRYVSTQYHYDDWGQGTQVTVSS,low polyreactivity

row,Sequence,polyreactivity (PSR sort gate)
1,QVQLVESGGGLVQAGGSLRLSCAASGSTFRYNAMGWYRQAPGKERELVAAITSSGGRTYYADSVKGRFTISRDNAKKTVYLQRISLKPEDTAVYYCDAYAYYHTGDDYWGQGTQVTVSS,high polyreactivity
2,QVQLVESGGGLVQAGGSLRLSCAASGSTFRYNAMGWYRQAPGKERELVAAITSSGSRTYYADSVKGRFTISRDNAKNTVYLQMNSLKPEDTAVYYCAAYGYYTKVTKYDYWGQGTQVNVSS,high polyreactivity
3,QVQLVESGGGLVQAGGSLRLSCAASGSTFRYNAMGWYRQAPGKERELVAGISYRGGTTYYADSVKGRFTISRDNAKNTVYLQMNSLKPEDTAVYYCAADSRAKRYYWGQGTQVTVSS,high polyreactivity
4,QVQLVESGGGLVQAGGSLRLSCAASGSTFRYNAMGWYRQAPGKERELVATITGSGGSTYYADSVKGRFTISRDNAKNTVYLQMNSLKPEDTAVYYCTARYVYGAYSSLSAHYYWGQGTQVTVSS,high polyreactivity
5,QVQLVESGGGLVQAGGSLRLSCAASGSTFRYNVMGWYRQAPGKERELVAAISSGGSTYYADSVKGRFTISRDNAKNTVYLQMNSLKPEDTAVYYCAAPRYLFFVGLGMDYWGQGTQVTVSS,high polyreactivity
6,QVQLVESGGGLVQAGGSLRLSCAASGSTFRYYAMGWYRQAPGKEREFVATINKSGGSTYYADSVKGRFTISRDNEKNTVYLQMNSLKPEDTAVYYGATRKSGGYRYDYWGQGTQVTVSS,high polyreactivity
7,QVQLVESGGGLVQAGGSLRLSCAASGSTFRYYAMGWYRQAPGKERELVAAISGSGGRTYYADSVKGRFTISRDNAKNTVYLQMNSLKPEYTAVYYCNTRGRSTDYDYWGQGTQVTVSS,high polyreactivity
8,QVQLVESGGGLVQAGGSLRLSCAASGSTFRYYAMGWYRQAPGKERELVAAISGSGGRTYYADSVKGRFTISRDNAKNTVYLQMYSLKPEDTAVYYCAASRYQFYWGQGTQVTVSS,high polyreactivity
9,QVQLVESGGGLVQAGGSLRLSCAASGSTFRYYAMGWYRQAPGKERELVAAISKSGGRTYYADSVKGRFTISRDNAKNTVYLEMNSLKPEDTAVYYCAADCVARYQKGQYDYWGQGTQVTVSS,high polyreactivity
10,QVQLVESGGGLVQAGGSLRLSCAASGSTFRYYAMGWYRQAPGKERELVAAISSAGTTYYADSVKGRFTISRDNAKNTVYLQMNSLNPEETAVYYCAAKYSYYTYAGDGGLFSWSYGYWGQGTQVTVSS,low polyreactivity
11,QVQLVESGGGLVQAGGSLRLSCAASGSTFRYYAMGWYRQAPGKERELVAAITYRATSTYYADSVEGRFTISRDNAKNTVYLQMNSLKPEYTAVYYCAAYSTYSRSDYWGQGTQVTVSS,high polyreactivity
12,QVQLVESGGGLVQAGGSLRLSCAASGSTFRYYAMGWYRQAPGKERELVAANTYRATSTYYADSVKGRFTISRDNAKNTVYLQMNSLKPEDTAVYYCAAYSTYSRYDYWGQGTQVTVSS,high polyreactivity
13,QVQLVESGGGLVQAGGSLRLSCAASGSTFRYYAMGWYRQAPGKERELVAGISSSGGRTYYADSVKGRFTISRDNAKNTVYLQMNSLKPEDTAVYYCAAVRSSWSYYYWGQGTQVTVSS,high polyreactivity
14,QVQLVESGGGLVQAGGSLRLSCAASGSTFRYYAMGWYRQEPGKERELVASITRGASTNYADSVKGRFTISRDNAKNTVYIQMNSLKPEDTAVYYCAADNYWHTFGGTDLRDDYWGQGTQVTVSS,low polyreactivity
15,QVQLVESGGGLVQAGGSLRLSCAASGSTFRYYAMGWYSQAPGKERELVASISSGGSTNYADSVKGRFTISRDNAKNTVYLQMNSLKPEDTAVYYCNADSWTVNRRYYYYRYEYWGQGTQVTVSS,low polyreactivity
16,QVQLVESGGGLVQAGGSLRLSCAASGSTFRYYDMGWYRQAPGKERELVADISSGGSTYYADSVKGRFTISRDNAKNTVYLQMNSLKPEDTAVYYCAAAYLSWLFRYDYWGQGTQVTVSS,high polyreactivity
17,QVQLVESGGGLVQAGGSLRLSCAASGSTFRYYTMGWYRQAPGKERELVASISRSGSTSYADSVKGRFTISRDNAKNTVYLQMNSLKPEDSAVYYCAGESYFGAYAGYDYWGQGTQVTVSS,low polyreactivity
18,QVQLVESGGGLVQAGGSLRLSCAASGSTFRYYVMGWYRQAPRKERELVAGISYRGGTTYYADSVKGRFSISRDNAKNTVYLQMNSLKPEDTAVYYCAADSTPYVLSGNYDYWGQGPQVTVSS,low polyreactivity
19,QVQLVESGGGLVQAGGSLRLSCAASGSTFSANAMGWYRQAPGKERELVAAITYRGGNTYYADSVKGRFTISRDNAKNTVYLQMNSLKPEDTAVYYCNRDLRVRYRRMKYGYWGQGTQVTVSS,low polyreactivity
20,QVQLVESGGGLVQAGGSLRLSCAASGSTFSANAMGWYRQAPGKERELVASISRGGGSTYYADSVKGRFTISRDTAKNTVYLQMNSLKPDDTAVYYCAAVYYRRISQGDTQTYYQYNYWGQVTQVTVSS,high polyreactivity
21,QVQLVESGGGLVQAGGSLRLSCAASGSTFSANAMGWYRQAPGKERELVASISRRGGSTYYADSVKGRFTISRDYAKNTVYLQMNSLKPEDTAVYYCNKRIARQGSPSEYGRSQIGYYYWGQGTQVTVSS,high polyreactivity
